{"source": "the supplement of paper PMC12455559"}
{"assay": "purified protein yield per well (BCA); higher = higher soluble expression", "experimental": "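Candidate PET hydrolases were expressed in E. coli C41(DE3) in 2 mL autoinduction cultures in 24-deep-well plates, Ni-bead purified and released by SUMO protease cleavage on an OT-2 robot. Yield per well was measured by BCA; values below 25 ug (0.1 mg/mL) are below the detection threshold. Melting temperature was measured by differential scanning fluorimetry with Sypro Orange, ramping from 25 C at 0.3 C/step.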", "units": {"purified protein yield per well": "µg"}}
{"sequence": "AADNPYERGPAPTVSSIEAARGSYAVSQTSVSSLSVSGFGGGTVYYPSSTADGTFGAVVISPGFTAYQSSIAWLGPRLASQGFVVFTIDTNTTLDQPDSRGRQLLAALDYLTKSSSVRGRVDASRLGVMGHSMGGGGSLEAAKSRTSLKAAIPLTGWNADKTWPELRTPTLVVGADGDTVAPVSSHSEPFYQSLPSTLDKAYLELNGATHFTPNSSNTTIAKYSISWLKRFIDNDTRYEQFLCPLPRPSLTIEEYRGNCPHGS [TEP044]", "purified protein yield per well": "< 25"}
{"sequence": "AADNPYERGPDPTEQSVTAIRGPFNVAQTDVSRLAVTGFGGGTIYYPTDTSQGTFGAIAISPGFTAYWSSLSWLGPRLASQGFVVFGIETNTTLDQPAQRGQQLLAALDYLTQRSSVRSRVDASRLAVAGHSMGGGGTLEAAKSRTSLKAAIPIAPWNLDKTWPEVRTPTLIIGGELDSIAPVATHSKPFYSSLSNAPEKAYLELDNASHFFPQISNTTMAKYMISWMKRFIDNDTRYDQFLCPPPRAIGDISDYQDTCPHS [TEP031]", "purified protein yield per well": "< 25"}
{"sequence": "AANPYERGPAPTTAVLEAARGPFATTSAAIARTSSFGGGTVYYPTDTSQGTFGAVAISPGFSATQSSVAWYGPRLASHGFVVVTINTLSGWDDPDSRARQLLAALDYLTNTHAVRTRIDKTRLGVMGHSMGGGGALRASVSRPSLQAAIPLAPWHNTKNWSSDGVPTLIVGAENDTVAPVNQHAEPFYTSITGAPDKAYLELNNAGHSAPSSEGPNVTVGKFSVAWLKRFIDNDTRYEQFLCPAPRPDTRINEYRDTCPHS [TEP084]", "purified protein yield per well": "< 25"}
{"sequence": "AAPAHHAAPAHAAVHHHAPFALRTTVVPRTAVTKFGGGVIYEPRDTGKPVLGAVVITPGFTDTNADEKEYAELVASQGFVAFAIDTLDTGDIPADRATQMLAAVDWLTGSSPVKAEVSPDRVALLGYSFGGGGAMQAAQSRPSIKAVVGMMPFDAPPESDPNATTPAYPRMTTPTLVITGQEDDVADPKYFGKPAYDSIPAGTPKQYLELKGLGHGAGEHMPVPTVRTAVTAFLKRYLDGNSAYGRFICPAPKAVGPISASLSSCPRG [ESM110]", "purified protein yield per well": "< 25"}
{"sequence": "AAPATAPSVQRAAANPHERGPAPTEESITAEEGPFEFETIDVPAGSGDGFNQGTIYAPTDLSQGTFGAIAVSPGFVSPEALISWYGPRLASQGFVVMTIETNTLLDQPAARGDQLLAALDYLTGGDSPVRDRVDTGRLAVTGHSMGGGGTLEAARERPGLRAAVPLAPWNLNSDWSAVRTPTMILGAQNDFIAANGLHSEPFYEGLTSAPEKAYAEIANTGHMSFNTPNDVIAKYTIAWMKRYVDDDTRYERFLCPAPSDDPALVEYRDTCPGG [TEP002]", "purified protein yield per well": "< 25"}
{"sequence": "AAPHASTAHHHAPFAVRTTVVPRTADAKFGGGVIYEPQDTGKPVLGAVVITPGFTDTNADEKEMAELVASQGFVAFAIDTLDVGDLPDQRATEILAAADYLTGQSAVKSQVSAKDLAFLGYSMGGGGTFQAAQARPSVKAAIGLMPFDIPDANDPNATTPSYPKLTTPSLVVTGQKDDVADPEYFGKPIYDSIPVGTPKQYLELTGLGHGAGEHVPAPTIRVAVTAFLKRYLDGNSAYAKYICPAPKVGGPVSASLSSCPQG [ESM176]", "purified protein yield per well": "< 25"}
{"sequence": "AAPPVPQVAASPYERGPAPSEESVTAAEGPFEFETIDVPAGSGDGFNQGTIYAPTDRSQGTFGAIAVSPGFVSPEALVSWYGPRLASQGFVVMTIETNTVLDLPAMRGDQLLAALDYLTGAASPVADRVDPDRLAVMGHSMGGGGTLEAASRRTDLRAAVPLAPWNLTSDWSAVRTPTMILGAQNDFIAANGLHSEPFYEGLTSAPEKAYAELENTGHMSFNTPNDTIAKYTIAWMKRYVDDDARYERFLCPAPSDDPALIEYRDTCPGG [TEP149]", "purified protein yield per well": "< 25"}
{"sequence": "AAPVHHAVTRPVAAHHPVTRPVAGHAPPPSTVDQIVVPATADARFGGGTIFAPHGAGQKVLGSVIVTPGFHGRKSDMAVYGTELAAEGFVVFTIDTRERADLPAQRATEMLAAADYLTGRSAVKGEVSPDRVALLGYSMGGGGTLEAAQERPSIKAALTLMPYDYPPAGDPKAVHPAYPELTVPTLIITGQKDATAIPAKFGKPAYDSIPAGTPKQYLQLTGLGHAAGMGKPTATIRAAITAFLERYLDGDTAYAKDICPAPEVGGPISASTSSCPAG [ESM183]", "purified protein yield per well": "< 25"}
{"sequence": "AAPVHHAVTRPVAAHHPVTRPVPRPVVAHAPQPPAVDQIVVPATADARFGGGTIFAPRGAGQKVLGSVVVTPGFHGRKSDMAVYGTELAAEGFVVFTIDTRDRADLPDQRATEMLAAADYLTGRSAVKGEVSPDRVALLGYSMGGGGTLQAAQERPSIKAALTLMPYDYPPAGDPKAVHPAYPELTVPTLIITGQKDATAIPAKFGKPAYDSIPAGTPKQYLQLTGLGHAAGMGKPTATIRAAITAFLERYLDGDTAYAKDICPAPKVGGPISASTSSCGTS [ESM119]", "purified protein yield per well": "< 25"}
{"sequence": "AAPVHHPVTRPAPAHHQPAAAAVDQIVVPAAADARFGGGTIFAPRGAGQKVLGSVVVTPGFHGRKSDMAVYGTELAAEGFVVFTIDTRDRADLPDQRATEMLAAADYLTGRSAVKGEVSPDRVALLGYSMGGGGTLQAAQERPSIKAALTLMPYDYPPAGDPKAVHPAYPELTVPTLIITGQKDATAIPAKFGKPAYDSIPAGTPKQYLQLTGLGHAAGMGKPTVAIRAAVTAFLERYLDGDTAYAKQICPAPKVGGPISASISSCPAG [ESM150]", "purified protein yield per well": "< 25"}
{"sequence": "ADNPFERGPDPSESSIEAYRGAYSVSEQSVSRWVSGFGGGTIHYPTTRSDGTFGAVVVSPGYTGTESSISWLGPRLASQGFVVLTMVTNSIYDYPDSRARQLQAALDYLTSSSSGVADRIDPDRLALMGHSMGGGGTLRAVSENPDIKAAIPMTPWHTDKTWREVTTPTLIFGAENDTVAPHYSHAEPFYDSLPSSLEKVYLELDGASHFAPNYSNTTIAKYSISWLKRFVDDDTRYSQFLCPGPSFWDGDVQTYESTCDF [TEP197]", "purified protein yield per well": "< 25"}
{"sequence": "ADNPHERGPDPTESSIEALRGSYAVSERSVSRWVSGFGGGTIYYPTTTSDGDFGAVVISPGYTGTESTVAWLGPRLASQGFVVLTMATNSIYDQPDSRARQLQAALDYLTASSPVADRIDADRLALMGHSMGGGGTLRAVDDNPDIKAAIPMTPWHPQKDWSSVSTPTLIFAAENDSVARHETHAEPFYESFEQDLPKAYLELDGASHFAPNTSNTTIAKYSISWLKRFVDDDTRYTPFLCPGPSTGWLSDVEKYESSCPF [DP076]", "purified protein yield per well": "< 25"}
{"sequence": "ADNPYERGPAPTNSSIEASRGPFAVSETSVSSLVSGFGGGTIYYPTSTSAGTFGAVAISPGYTGTQSTMAWLGPRLASQGFVIFTIDTNSVYDQPDSRASQLLAALDYLTQQSTVRTRIDSSRLGVMGHSMGGGGTLRAASQRPSLQAAIPLTGWHTTKNWSSVRVPTLVVGAESDSVAPVSSHSEPFYTSLPSTLDKAYLELNNASHFAPNSSNTTIAKYSISWLKRFIDNDTRYEQFLCPAPGRSTLIEEYRDTCPHS [TEP028]", "purified protein yield per well": "< 25"}
{"sequence": "ADNPYERGPAPTNSSIEATRGPFAVSDTRVSSLVSGFGGGTIYYPTSTSSGTFGAVVISPGFTGTQSSIDWLGPRIASQGFVVFTIDTITIYDQPDSRASQLLAALDYLTQRSDVRSRIDASRLGVMGHSMGGGGTLRAAAQRPSLQAAIPLTGWHTTKNWSSVSVPTLVIGAESDSVAPVATHSEPFYTSLPSTLDKAYLELNNASHFAPNLPDTTIAKYSISWLKRFIDNDTRYEQFLCPGPGRSTQVEEYRNTCPNS [TEP025]", "purified protein yield per well": "< 25"}
{"sequence": "ADNPYERGPAPTRASIEAPRGPYAVSQTSVSSLLVSGFGGGTIYYPTSTSDGTFGAVVVTPGFTATESSMAWLGPRLASQGFVVFTIDTLTTLDQPDSRGRQMLAALDYLTERSSARTRIDGTRLGVIGHSMGGGGTLEAAKSRPSLKAAIPLTPWNLDKTWPEVTTPTLVVGADGDTVAPVATHAKPFYSTLPSTTDRAYLELNNATHFAPNISNTTIAKYSVSWLKRFIDDDTRYEQFLCPLPEPDRDIEEYRGTCPLGG [TEP162]", "purified protein yield per well": "< 25"}
{"sequence": "ADNPYERGPDPSWSSIEALRGPYTVDDTSVSRWVSGFGGGTIYYPDTTRDGDFGAAVISPGYTGTQSSIDWLGPRLASQGFVVLTIDTNSVYDQPDSRADQLQAALDYLTGSSDVADRIDPDRLALMGHSMGGGGTLRAVDDDPSIKAAIPMTPWHIKKNWSSVSTPTLIFGAERDSIAPHETHAEPFYDSLSRSLPKAYLELNNASHFAPNSSNTEIASISIAWLKRFVDDDTRYEQFVCPGPSGYAIEKYESSCPF [TEP128]", "purified protein yield per well": "< 25"}
